The target in assay [1] is T1, human CD27 on the cell surface (Ramos cells, human CD3+ T cells, CD27 reporter cell line) (human, UniProt P26842 20-260).
T1 construct: also called CD27 on cells
T1 sequence: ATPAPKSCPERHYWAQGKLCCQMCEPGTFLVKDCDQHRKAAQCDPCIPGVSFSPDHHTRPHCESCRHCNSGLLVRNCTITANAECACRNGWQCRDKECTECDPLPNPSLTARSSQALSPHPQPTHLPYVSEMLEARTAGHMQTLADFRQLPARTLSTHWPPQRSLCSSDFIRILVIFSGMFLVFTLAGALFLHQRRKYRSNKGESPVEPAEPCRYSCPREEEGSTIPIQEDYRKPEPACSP
Description: flow cytometry, Ramos cells expressing human CD27, antibody 3 µg/ml. Here is the method:
Antibodies were tested for binding to a human cell line expressing human CD27 on their surface. Protein A purified human monoclonal antibodies (3 μg/ml) were incubated with Ramos cells expressing human CD27 at room temperature on a plate shaker. After 20 minutes, the cells were washed with PBS containing 0.1% BSA and 0.05% NaN₃ (PBA) and the bound antibodies were detected by incubating the cells with a PE labeled goat anti-human IgG Fc-specific probe. The excess probe was washed from the cells with PBA and the cell associated fluorescence was determined by analysis using a FACSCanto II™ instrument (BD Biosciences, NJ, USA) according to the manufacturer's directions.

Assay [2] has as its target T2, full length wild type extracellular domain (ECD) of human CD27 (human, UniProt P26842 21-188).
T2 construct: also called wild type huCD27; ECD of huCD27
T2 sequence: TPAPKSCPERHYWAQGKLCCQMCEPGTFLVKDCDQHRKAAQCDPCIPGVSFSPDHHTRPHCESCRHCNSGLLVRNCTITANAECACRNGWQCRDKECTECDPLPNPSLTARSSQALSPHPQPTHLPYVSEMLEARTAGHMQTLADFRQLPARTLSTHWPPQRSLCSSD
The assay can be described thus: ELISA, plate coated with wild type CD27 ECD; supernatant of cells expressing mAb 2B3; anti-human IgG Fc-HRP. On the procedure: (§1) The full length wild type extracellular domain (ECD) of human CD27 or human CD27 with mutated amino acids 85, 87, 88, and 89 (A85S, R87A, N88A and G89A; see FIG. 34) were coated to a plate, then blocked. Supernatant from transiently transfected cells expressing mAb 2B3 was added and binding was detected with an HRP conjugated goat anti-human IgG Fc polyclonal antibody.

Assay [3] has as its target T3, recombinant human CD27-FLAG-HIS (human, UniProt P26842 20-191).
T3 sequence: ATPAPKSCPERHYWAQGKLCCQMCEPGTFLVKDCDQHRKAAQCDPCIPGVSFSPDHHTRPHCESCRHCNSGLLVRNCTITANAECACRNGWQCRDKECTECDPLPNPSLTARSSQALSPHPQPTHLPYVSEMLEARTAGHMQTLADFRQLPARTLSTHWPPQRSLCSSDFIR
Description: ELISA, plate coated with recombinant human CD27-FLAG-HIS. On the procedure: Microtiter plates were coated with recombinant human CD27-FLAG-HIS in PBS, and then blocked with 5% bovine serum albumin in PBS. Protein A purified human monoclonal antibodies were added at various concentrations and incubated at 37° C. The plates were washed with PBS/Tween and then incubated with a goat-anti-human IgG Fc-specific polyclonal reagent conjugated to horseradish peroxidase at 37° C. After washing, the plates were developed with HRP substrate, and analyzed at OD 450-650 nm using a microtiter plate reader.

Assay [4] addresses T4, human CD27 ECD with mutated amino acids 85, 87, 88 and 89 (A85S, R87A, N88A and G89A) (human, UniProt P26842 21-188).
T4 construct: also called mutated huCD27; mutated CD27 ECD
T4 chain: T2 sequence with A85S, R87A, N88A, G89A
The assay can be described thus: ELISA, plate coated with mutated CD27 ECD; supernatant of transiently transfected cells expressing mAb 2B3; anti-human IgG Fc-HRP. Here is the method:
as §1

In assay [5] the target is T3, recombinant human CD27-FLAG-HIS. Description: bifunctional ELISA generally as in Example 16 (CD27-FLAG-HIS coated, PD-L1-msFc detected). On the procedure:
Binding of bispecific constructs to CD27 and PD-L1 was assessed using a bifunctional ELISA. Antibody AbX is a known anti-PD-L1 monoclonal antibody. In brief, a microtiter plate was coated with human CD27-FLAG-HIS. Dilutions of the bispecific constructs were allowed to bind before adding human PD-L1-msFc that was detected with an HRP labeled goat anti-mouse IgG (Fc specific) antibody.
(An ELISA detects its analyte on a solid surface through an enzyme-linked reagent.)

Numbering of substitutions follows the chain as printed.

B1: anti-CD27 human monoclonal antibody 2B3 (antibody, V domains shown)
VH: QVQLVQSGAEVKKPGASVKVSCKASGYTFTGYYIHWVRQAPGQGLEWMGWINPNSGGTNSAQKFQDRVTITRVTSINTAYMELSRLRSDDTAVYFCARDRLVLPWFGEIFPDAFDIWGQGTLVTVSS
VL: EIVMTQSPATLSVSPGERATLSCRASQSIRSNLAWYQQKPGQAPRLLIYGASTRATGIPARFSGSGSGTEFTLTISSLQSENFAVYYCQQYNNWPLTFGGGTKVEIK
notes: In the cynomolgus CD27 ELISA hybridoma supernatants were used (human V regions with rat constant regions); also called mAb 2B3
As for B1, the binding result in assay [1] is reported as “binds”; in assay [2] it was “binds”; in assay [3] it was “binds”; in assay [4], “no binding”.

B2: anti-CD27 human monoclonal antibody 3C2 (antibody, V domains shown)
VH: QAQLQESGPGLVKPSETLSLTCTVSTGSISGYYWSWIRQPPGKGLEWIGYNYYSGSTNYNPSLKSRVTISIDTSKNQFSLKLNSVTAADTAVYYCARYPLIRGAFDYWGQGTLVTVSS
VL: not shown
notes: hybridoma supernatant (rat constant regions) in the cynomolgus CD27 ELISA
B2: the binding result in assay [1] and in assay [3] was “binds” throughout.

B3: CDX-527 (9H9×2B3 bispecific antibody: anti-PD-L1 IgG1 9H9 with anti-CD27 2B3 scFv) (bispecific antibody)
heavy: not shown
light: DIQMTQSPSTLSASVGDRVTITCRASQSISGWLAWYQQKPGKAPKLLIYKASSLESGVPSRFSGSGSGTEFTLTISSLQPDDFATYYCQQYYGSSRTFGQGTNVEIKRTVAAPSVFIFPPSDEQLKSGTASVVCLLNNFYPREAKVQWKVDNALQSGNSQESVTEQDSKDSTYSLSSTLTLSKADYEKHKVYACEVTHQGLSSPVTKSFNRGEC
As for B3, the binding result in assay [5] is recorded as “binds”.

For the origin of these results see US20200109207A1 (CELLDEX THERAPEUTICS, published 2020).
